Test results published in publication PMC4847170, “Insights into the DNA-binding mechanism of a LytTR-type transcription regulator”.
Where a chain is given by its changes, count along the chain named.

Assays:
Settings in all cases: protein: recombinant; tags: N-terminal 6His; chain copies: 2; label: 5' biotin on strand 1; blunt
YpdB-D53E [1] = molecular target: T1, YpdB-D53E (Escherichia coli, UniProt P0AE39 1-244, D53E); assay: SPR; 1-50 nM protein; binding completely abolished; SPR (Biacore T200, SA chip): HBS-EP, 10 mM HEPES pH 7.4, 150 mM NaCl, 3 mM EDTA, 0.005% P20, 25 C
T1 sequence: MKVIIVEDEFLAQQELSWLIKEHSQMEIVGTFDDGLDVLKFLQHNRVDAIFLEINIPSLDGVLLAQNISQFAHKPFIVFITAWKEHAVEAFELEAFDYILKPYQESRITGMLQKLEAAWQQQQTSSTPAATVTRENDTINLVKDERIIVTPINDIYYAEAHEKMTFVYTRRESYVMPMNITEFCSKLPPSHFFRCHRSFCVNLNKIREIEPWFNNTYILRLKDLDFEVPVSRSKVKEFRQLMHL

YpdB = molecular target: T2, YpdB (Escherichia coli, UniProt P0AE39 1-244); assay: SPR; 1-50 nM protein; lower maximal binding rate and affinity than D53E; SPR (Biacore T200, SA chip): HBS-EP, 10 mM HEPES pH 7.4, 150 mM NaCl, 3 mM EDTA, 0.005% P20, 25 C
T2 sequence: T1 sequence with E53D

YpdB-D53E [2] = molecular target: T1, YpdB-D53E; assay: SPR; overall affinity from maximal binding rates, active protein concentration; SPR (Biacore T200, SA chip): HBS-EP, 10 mM HEPES pH 7.4, 150 mM NaCl, 3 mM EDTA, 0.005% P20, 25 C

B1: PyhjX_A (site A inactivated) (dsDNA)
DNA 1: GGGGCGCGTCATTCATTCCTGAACTAATTACGGGACGTCCGTTCTGATGGCATTTCATGCCGGGGG
DNA 2: CCCCCGGCATGAAATGCCATCAGAACGGACGTCCCGTAATTAGTTCAGGAATGAATGACGCGCCCC
B1: no binding (YpdB-D53E [1]).

B2: PyhjX (dsDNA)
DNA 1: GGGGCGCGTCATTCATTCCTGAACTAAGGCATTTCATTCCGTTCTGATGGCATTTCATGCCGGGGG
DNA 2: CCCCCGGCATGAAATGCCATCAGAACGGAATGAAATGCCTTAGTTCAGGAATGAATGACGCGCCCC
With B2 the binding result (YpdB) was “binds” and the Kd (YpdB-D53E [2]) was 10 nM.
